In US7642046B2, “Method for monitoring recruitment of proteins to the intracellular domain of a receptor in intact cells” (priority 2001, dated 2010):

What was measured:
[1] = biological target: T1, CD40 (Homo sapiens, UniProt P25942); assay: TRAF binding to CD40 in cell lysate: separately expressed extracts mixed 1:1, ELISA; details: extracts mixed 1:1, over night at 4° C.
T1 construct: expressed in transfected cells; host or cells: HEK 293T
Description: To measure TRAF recruitment to CD40 many studies relied on experimental systems that probe TRAF binding to synthetic peptides or soluble fragments of the CD40 signaling domain (Rothe et al. 1994, Hu et al. 1994, Cheng et al. 1995, Mosialos et al. 1995, Ishida et al. it 1996, Ishida et al. b 1996, Boucher et al. 1997, Pullen et al. 1998 and Pullen et al. 1999). […] Therefore, recruitment of TRAF1 and TRAF2 by CD40 intact cells versus cell lysate was compared. In the experiment, CD40 and TRAF1 or TRAF2 were co-expressed or expressed separately in 293T cells (constructs described in example 7 below). Plasmid concentrations and ratios were identical to the experiment described in example 1. After 27 hours, the cells were detergent lysed as in example 1. The extracts from 293T cells expressing only CD40 or the TRAF of interest were mixed at a 1:1 ratio and incubated over night at 4° C. Extracts expressing both CD40 and the TRAF of interest were kept under identical conditions. Then the samples were incubated on microtiter plates coated with a mAb against the extra-cellular domain of CD40 as described in example 1. After a washing step, CD40 bound TRAFs were detected with anti TRAF antibodies (example 1). Quantitation of TRAF recruited to CD40 was carried out as described in the example 3 below.

[2] = biological target: T2, p75TNFR (Homo sapiens, UniProt P20333+P25942); assay: Recruitment assay with hybrid receptor (CD40 extracellular domain, p75TNFR transmembrane and intracellular domain); type: cell-based; details: 293T cells, CD40 as relative standard
T2 construct: cDNA fragments encoding for the transmembrane and cytoplasmic domains of the LTβR, TACI, the p75TNF receptor, CD27; expressed in transfected cells; host or cells: 293T
Procedure: The recruitment of TRAF to CD40 can be quantitatively measured using the assay described in example 1. For that purpose, the assay conditions were adjusted in such a way that TRAF expression was in significant excess over the expression of CD40. This was the case when the TRAF expression plasmid was used at a two to three fold excess over the CD40 expression plasmid. The CD40 bound TRAF concentration was measured as described in example 1. A reference extract containing CD40/TRAF complexes served as a standard in each assay. This standard extract consisted of a large pool extract from cells that had been co-transfected with the plasmids encoding CD40/TRAF1, CD40/TRAF2, CD40/TRAF3, CD40/TRAF5 and CD40/TRAF6. The extracts were tested for the presence of CD40/TRAF complexes and the complex concentrations in each extract were arbitrarily defined as 1000 U/ml. The extracts were frozen in small aliquots and kept at −80° C. until further use. […] The necessary normalization for sample-to-sample variations in the CD40 expression was calculated with the following formula: […]
Recruitment of various TRAFs to receptors different to CD40, was tested by the recruitment assay described in example 1 by transforming cells with expression plasmids encoding hybrids receptors comprising the extracellular domain of CD40 and transmembrane and intracellular domain of anyone of the following receptors: BCMA (Madry et al. 1998 and Hatzoglou et al. 2000) the LTβR-receptor (Mosialos et al. 1995, Crowe et al. 1994, Nakano et al. 1996), TACI (von Bulow et al. 1997, Xia et al. 2000) the p75TNFR (Rothe et al. 1994) and the CD27 (Gravestein et al. 1998, Akiba et al. 1998) (for details of constructs see example 7). Measurement of TRAF recruitment to the signalling domains of BCMA the LTβR-receptor TACI the p75TNFR or the CD27 was carried out by co-transfecting 293T cells with a plasmid encoding anyone of the above hybrid receptors together with a plasmid encoding TRAF and measurement of the TRAF/Receptor complex using the ELISA sandwich described in example 1 and the quantitation as described in example 3. […]

T2 sequence (P25942+P20333 fused): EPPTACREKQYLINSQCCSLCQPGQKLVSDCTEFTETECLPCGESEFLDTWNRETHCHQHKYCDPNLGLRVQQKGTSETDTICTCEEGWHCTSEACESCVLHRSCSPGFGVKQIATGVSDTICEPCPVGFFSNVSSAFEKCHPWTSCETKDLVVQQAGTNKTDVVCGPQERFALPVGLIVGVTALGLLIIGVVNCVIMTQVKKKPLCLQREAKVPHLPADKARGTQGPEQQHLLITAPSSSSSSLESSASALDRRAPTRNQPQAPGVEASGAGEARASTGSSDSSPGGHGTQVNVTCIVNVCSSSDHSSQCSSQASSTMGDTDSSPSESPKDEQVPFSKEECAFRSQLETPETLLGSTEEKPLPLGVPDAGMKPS
T1 sequence (P25942 21-277): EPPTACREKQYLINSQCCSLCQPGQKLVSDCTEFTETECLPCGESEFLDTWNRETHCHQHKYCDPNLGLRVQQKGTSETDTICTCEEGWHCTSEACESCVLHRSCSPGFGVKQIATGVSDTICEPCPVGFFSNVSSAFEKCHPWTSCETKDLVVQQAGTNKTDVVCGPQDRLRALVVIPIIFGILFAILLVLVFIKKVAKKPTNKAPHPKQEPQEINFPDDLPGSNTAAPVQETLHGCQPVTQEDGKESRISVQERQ

| binding to CD40 in cell lysate [1] | recruitment to p75TNFR, folds higher than recruitment to CD40 [2] | Molecule |
| --- | --- | --- |
| barely detectable | 25 fold | TRAF1: TNF receptor associated factor 1, adaptor protein overexpressed in 293T cells from pcDNA3 (protein, UniProt Q13077 1-416, looked up, full-length, TNF receptor associated factor 1, adaptor protein overexpressed in 293T cells from pcDNA3) MASSSGSSPRPAPDENEFPFGCPPTVCQDPKEPRALCCAGCLSENPRNGEDQICPKCRGEDLQSISPGSRLRTQEKAHPEVAEAGIGCPFAGVGCSFKGSPQSVQEHEVTSQTSHLNLLLGFMKQWKARLGCGLESGPMALEQNLSDLQLQAAVEVAGDLEVDCYRAPCSESQEELALQHFMKEKLLAELEGKLRVFENIVAVLNKEVEASHLALATSIHQSQLDRERILSLEQRVVELQQTLAQKDQALGKLEQSLRLMEEASFDGTFLWKITNVTRRCHESACGRTVSLFSPAFYTAKYGYKLCLRLYLNGDGTGKRTHLSLFIVIMRGEYDALLPWPFRNKVTFMLLDQNNREHAIDAFRPDLSSASFQRPQSETNVASGCPLFFPLSKLQSPKHAYVKDDTMFLKCIVETST |
| barely detectable | about 60 fold | TRAF2: TNF receptor associated factor 2, human adaptor protein expressed from pcDNA3 (protein, UniProt Q12933 1-501, looked up, full-length, TNF receptor associated factor 2, human adaptor protein expressed from pcDNA3) MAAASVTPPGSLELLQPGFSKTLLGTKLEAKYLCSACRNVLRRPFQAQCGHRYCSFCLASILSSGPQNCAACVHEGIYEEGISILESSSAFPDNAARREVESLPAVCPSDGCTWKGTLKEYESCHEGRCPLMLTECPACKGLVRLGEKERHLEHECPERSLSCRHCRAPCCGADVKAHHEVCPKFPLTCDGCGKKKIPREKFQDHVKTCGKCRVPCRFHAIGCLETVEGEKQQEHEVQWLREHLAMLLSSVLEAKPLLGDQSHAGSELLQRCESLEKKTATFENIVCVLNREVERVAMTAEACSRQHRLDQDKIEALSSKVQQLERSIGLKDLAMADLEQKVLEMEASTYDGVFIWKISDFARKRQEAVAGRIPAIFSPAFYTSRYGYKMCLRIYLNGDGTGRGTHLSLFFVVMKGPNDALLRWPFNQKVTLMLLDQNNREHVIDAFRPDVTSSSFQRPVNDMNIASGCPLFCPVSKMEAKNSYVRDDAIFIKAIVDLTGL |
